Reference: publication PMC2668763
Like-named read-outs stand apart in the source and are kept apart here.

With “hCdc14A: Cdc14A phosphorylation mutants (S351,363A and S351,363D)” as the substance, how does the localisation_or_trafficking (phosphorylation at S351) read?
Its localisation_or_trafficking is “no change”.

What about the localisation_or_trafficking (phosphorylation at S363) of the same substance?
The localisation_or_trafficking was “no change”.
